Test results published in patent KR20220082776A (dated 2022).
Residue numbers refer to the chain shown, from its start. Values belong to the binder of their own block, whether it stands above or below them.

Columns and labels:
[1] = target: T1, 재조합 인간 TIGIT-His 단백질 (recombinant human TIGIT-His protein) (human) (UniProt Q495A1); assay: SPR, chimeric antibodies; antigen not given
T1 sequence (looked up): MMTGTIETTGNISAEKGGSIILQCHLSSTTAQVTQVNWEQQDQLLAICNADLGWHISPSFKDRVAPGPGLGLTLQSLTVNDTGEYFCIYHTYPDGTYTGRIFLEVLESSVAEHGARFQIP

[2] = target: T2, 인간 TIGIT (human TIGIT on cells) (human, UniProt Q495A1 22-244); assay: flow cytometry on CD4 and CD8 T cells of anti-hCD3/28-activated human PBMC
T2 construct: whole, on cells; also called hTIGIT
T2 sequence (looked up): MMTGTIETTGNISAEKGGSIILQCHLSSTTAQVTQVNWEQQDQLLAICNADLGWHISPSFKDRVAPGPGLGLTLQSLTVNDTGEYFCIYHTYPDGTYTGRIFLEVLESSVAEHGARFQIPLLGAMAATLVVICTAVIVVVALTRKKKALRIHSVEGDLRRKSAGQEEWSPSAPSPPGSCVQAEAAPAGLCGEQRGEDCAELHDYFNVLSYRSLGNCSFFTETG

[3] = target: T3, 재조합 인간 TIGIT-His 단백질 (recombinant human TIGIT-His protein) (human, UniProt Q495A1 22-141); assay: SPR; antigen not given
T3 construct: All are treated here as one molecule; also called TIGIT-His(Sino); 항원; not shown: His tag
T3 sequence (looked up): T1 sequence (looked up)

[4] = target: T3, 재조합 인간 TIGIT-His 단백질 (recombinant human …); assay: hybridoma culture medium; 도 1 is flow cytometry on anti-hCD3/28-activated human T cells, the sentence names recombinant human TIGIT-His
[5] = target: T1, 재조합 인간 TIGIT-His 단백질 (recombinant human TIGIT-His protein) (human); assay: SPR, humanized antibodies; antigen not given
[6] = target: T2, 인간 TIGIT (human TIGIT on cells); assay: flow cytometry on artificial effector T cells expressing TIGIT
[7] = target: T3, 재조합 인간 TIGIT-His 단백질 (recombinant human …); assay: ELISA, plate coated with recombinant human TIGIT-His, anti-hIgG-HRP detection
[8] = target: T3, 재조합 인간 TIGIT-His 단백질 (recombinant human …); assay: method not named in the sentence (SPR of Example 7); antigen not given
[9] = target: T3, 재조합 인간 TIGIT-His 단백질 (recombinant human …); assay: ELISA, plate coated with recombinant human TIGIT-His, as in Example 3-(1)

binding result [7]: binds
B7: chimeric-후보항체 clone 19D (antibody, V domains shown)
VH: EVQLQQSGPELVKPGASVKMSCKASGYTFSNYVMHWVKQKPGQGLEWIGYINPYNDGTKYNEKFKGKATLTSDRSSSTAYMELSSLTSEDSAVYYCARWRVNYYFDYWGQGTTLTVSS
VL: QIVLSQSPAILSASPGEKVTMTCRASSSVNYMHWYQQKPGSSPKAWISVTSNLASGVPARFSGSGSGTSYSLTISRVEAEDAATYYCQQWSSNPPWTFGGGTKLEIK
notes: Produced in Expi293; also called chimeric 19D

binding result [8]: binds
B9: T21.33 (antibody, V domains shown)
VH: QVQLVQSGAEVKKPGASVKVSCKASGYTFTSYVMHWVRQAPGQRLEWIGYINLNNDGTKYNEKFKGRATLTSDKSASTAYMELSSLRSEDTAVYYCARWRVYYYAMDYWGQGTLVTVSS
VL: EIVLTQSPATLSLSPGERATLSCNASSSVDYVHWYQQKPGQAPRPWIYEISKLASGIPARFSGSGSGTSYTLTISSLEPEDFAVYYCQLWNYPLITFGQGTKVEIK
notes: also called clone T21.33

binding result [6]: binds | binding result [9]: binds
B10: 인간화 후보항체 clone 19D (antibody, V domains shown)
VH: QVQLVQSGAEVKKPGASVKVSCKASGYTFSNYVMHWVRQAPGQRLEWIGYINPYNDGTKYNEKFKGRATLTSDRSASTAYMELSSLRSEDTAVYYCARWRVNYYFDYWGQGTLVTVSS
VL: DIQLTQSPSSLSASVGDRVTITCRASSSVNYMHWYQQKPGKAPKAWISVTSNLASGVPSRFSGSGSGTDYTLTISSLQPEDFATYYCQQWSSNPPWTFGQGTKVEIK
notes: Humanized; also called 인간화 후보항체 19D; humanized 19D

결합력, fold higher than humanized clone 19D [5]: 36 배 | binding result [6]: binds
B12: 인간화 후보항체 clone 75G (antibody, V domains shown)
VH: EVQLVESGGGLVQPGGSLRLSCAASGVTFSNYWMNWVRQAPGKGLEWVAEIRLKFNDYATHYVESVKGRFTISRDDSKNSVYLQMNSLKTEDTAVYYCTMVRRNWYFDVWGRGTLVTVSS
VL: EIVLTQSPATLSLSPGERATLSCSASSSVSSGYLYWYQQKPGLAPRLWIYSTSDLASGIPDRFSGSGSGTDYTLTISRLEPEDFAVYYCHQWSSYPYTFGQGTKLEIK
notes: Humanized; also called 인간화 후보항체 75G; humanized 75G

결합력, fold higher than the control Oncomed-313M32 antibody [1]: 30 배 | binding result [2]: binds
B13: chimeric-후보항체 clone 62F (antibody, V domains shown)
VH: EVQLQQSGPELVKPGASVKISCKTSGFTFTEYTMHWVKQSHGKSLEWIGGFNPNSGGSSYNQKFKGKATLTVDKSSSTAFMELRSLTSEDSAAYYCARSSYYRFDLDYWGQGTTLTVSS
VL: DIVMTQSHKFMSTSVGDRVSITCKASQDVKTAVAWYQQKPGQSPQLLIYSASFRYTGVPDRFTGSGSGADFTFTISSVQAEDLAAYYCQQHYTTPWTFGGGTKLEIK
notes: also called chimeric 62F

binding result [4]: binds
B14: clone 62F (hybridoma antibody) (antibody, V domains shown)
VH: B13 VH
VL: B13 VL
notes: Mouse hybridoma antibody

결합력, fold higher than the control Oncomed-313M32 antibody [1]: 6 배
B15: chimeric-후보항체 clone 63F (antibody, V domains shown)
VH: EVQLEEFGGGLVQPGGSMKLSCVASGSTFSNYWMNWVRQSPEKGLEWVAEIRLKFNNYATHYVESVIGRFTISRDDSKSSVYLQMNNLRAEDTGIYYCTMVRRNWYFDVWGAGTTVTVSS
VL: QIVLTQSPAIMSAFPGEKVTLTCSASSSVSSSYLYWYQQKPRSSPKLWIYSTSNLASGVPARFSGSGSGTSYSLTISSMEAEDAASYFCHQWSSYPYTFGGGTKLEIK

binding result [4]: binds
B16: clone 75G (hybridoma antibody) (antibody, V domains shown)
VH: B15 VH with Q3N, F7S, S27V, N57D, I67K, K78E
VL: B15 VL with F14S, S32G, Q39K, R42G, N54D, S71F, S78N
notes: Mouse hybridoma antibody (culture medium)

결합력, fold higher than the control Oncomed-313M32 antibody [1]: 30 배 | binding result [2]: binds
B17: chimeric-후보항체 clone 75G (antibody, V domains shown)
VH: B15 VH with Q3N, F7S, S27V, N57D, I67K, K78E
VL: B15 VL with F14S, S32G, Q39K, R42G, N54D, S71F, S78N
notes: also called chimeric 75G

More lines, now with the values behind:

B1: chimeric-후보항체 clone 58E (antibody, V domains shown)
VH: EVQLQQSGPELVKPGASVKMSCKASGYTFTSYVMHWVKQKPGQGLEWIGYINLNNDGTKYNEKFKGKATLSSDKSSSTAYMELSSLTSEDSAVYYCARWRVYYYAMDYWGQGTSVTVSS
VL: EIVLTQSPAITAASLGQKVTITCSASSSVNYMHWYQQKSGTSPRPWIYEISKLASGVPARFSGSGSGTSYSLTISSMEAEDAAIYYCQLWNYPLITFGAGTKLELK
notes: also called chimeric 58E; 후보항체 58E
결합력, fold higher than the control Oncomed-313M32 antibody [1]: 13 배 | binding result [2]: binds

B2: T21.09 (antibody, V domains shown)
VH: B1 VH
VL: B9 VL with S69D
notes: Gene engineered variant of 58E; also called clone T21.09
binding result [3]: binds

B3: clone 58E (hybridoma antibody) (antibody, V domains shown)
VH: B1 VH
VL: B1 VL
notes: as for B16
binding result [4]: binds

B4: T21.11 (antibody, V domains shown)
VH: B9 VH
VL: B1 VL with S24N, N30D, M32V
notes: Gene engineered variant of 58E: humanized 58E heavy chain, light chain T21L01; also called clone T21.11
binding result [3]: binds

B5: T21.01 (antibody, V domains shown)
VH: B1 VH
VL: B1 VL with S24N, N30D, M32V
notes: Gene engineered variant of 58E; produced in Expi293F; also called clone T21.01
binding result [3]: binds

B6: 인간화 후보항체 clone 62F (antibody, V domains shown)
VH: QVQLVQSGAEVKKPGASVKVSCKASGFTFTEYTMHWVRQAPGQGLEWIGGFNPNSGGSSYNQKFKGRATLTVDKSISTAYMELSRLRSDDTAVYYCARSSYYRFDLDYWGQGTTVTVSS
VL: DIQMTQSPSSLSASVGDRVTITCKASQDVKTAVAWYQQKPGKAPKLLIYSASFRYTGVPSRFSGSGSGADFTLTISSLQPEDFATYYCQQHYTTPWTFGQGTKVEIK
notes: Humanized; also called 인간화 후보항체 62F; hu62F
결합력, fold higher than humanized clone 19D [5]: 33 배 | binding result [6]: binds

B8: T21.13 (antibody, V domains shown)
VH: B9 VH
VL: B9 VL with S69D
notes: Gene engineered variant of 58E; also called clone T21.13
binding result [3]: binds

B11: 인간화 후보항체 clone 63F (antibody, V domains shown)
VH: B12 VH with V27S, D57N, K67I
VL: B12 VL with G32S, D54N
notes: Humanized; also called 인간화 후보항체 63F; humanized 63F
결합력, fold higher than humanized clone 19D [5]: 13 배 | binding result [6]: binds
